Tests used:
[1] = target: T1, ZCCHC3-FL-7AA (zinc knuckle mutant of ZCCHC3-FL) (human, UniProt Q9NUD5 1-403, C353,366,372,375A | C353,366,372,375A | C353,366,372,375A | C353,366,372,375A | …); experiment: co-IP; HEK 293T lysates, FLAG-tagged bait on α-FLAG-M2 antibody bound to Protein G Dynabeads, 3 h at 4°C, 5 washes; endogenous ORF1p detected with polyclonal α-L1Hs-ORF1p; bands quantified with ImageJ (IP/input compared with empty vector); conditions: partners not purified
T1 construct: also called zinc-finger mutant ZCCHC3-FL-7AA; source: HEK 293T, transfected, in lysate; not shown: FLAG, C-terminal, kept
T1 sequence (looked up): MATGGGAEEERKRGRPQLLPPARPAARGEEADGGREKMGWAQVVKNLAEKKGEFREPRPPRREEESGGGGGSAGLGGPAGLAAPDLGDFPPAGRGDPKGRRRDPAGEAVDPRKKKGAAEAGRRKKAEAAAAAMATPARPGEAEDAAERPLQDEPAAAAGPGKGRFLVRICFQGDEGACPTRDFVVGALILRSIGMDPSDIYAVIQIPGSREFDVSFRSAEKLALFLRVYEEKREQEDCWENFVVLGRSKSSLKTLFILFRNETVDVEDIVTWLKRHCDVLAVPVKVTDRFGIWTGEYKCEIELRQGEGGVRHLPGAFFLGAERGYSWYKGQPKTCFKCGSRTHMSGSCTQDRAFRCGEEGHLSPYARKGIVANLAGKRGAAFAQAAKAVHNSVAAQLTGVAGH

[2] = target: T2, ZCCHC3-FL (Zinc Finger CCHC-Type Containing 3 with C-terminal FLAG epitope tag) (human, UniProt Q9NUD5 1-403); experiment: as above; conditions: partners not purified
T2 construct: ZCCHC3 (Zinc Finger CCHC-Type Containing 3), human; made by PCR amplification of V5-TEV-ZCCHC3 (Ultimate ORF clone IOH40787); legend calls it the 44 kD full-length ZCCHC3-FL; also called FLAG-tagged ZCCHC3; wild-type ZCCHC3-FL; source: HEK 293T, transfected, in lysate; not shown: FLAG, C-terminal, kept
T2 sequence (looked up): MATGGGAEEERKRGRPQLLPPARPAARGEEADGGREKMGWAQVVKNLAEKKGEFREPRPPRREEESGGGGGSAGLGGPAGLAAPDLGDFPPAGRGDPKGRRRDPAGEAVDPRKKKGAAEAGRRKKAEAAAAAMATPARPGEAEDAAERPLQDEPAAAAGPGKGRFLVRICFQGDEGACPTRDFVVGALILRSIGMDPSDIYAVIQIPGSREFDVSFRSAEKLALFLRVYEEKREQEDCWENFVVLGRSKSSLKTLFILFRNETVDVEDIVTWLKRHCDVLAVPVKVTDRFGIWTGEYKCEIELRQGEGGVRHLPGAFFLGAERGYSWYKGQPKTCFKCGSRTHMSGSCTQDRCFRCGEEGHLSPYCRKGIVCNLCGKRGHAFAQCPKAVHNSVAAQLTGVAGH

B1: endogenous L1 ORF1p (natural protein, human (endogenous in HEK 293T), UniProt Q9UN81 1-338, looked up)
chain: MGKKQNRKTGNSKTQSASPPPKERSSSPATEQSWMENDFDELREEGFRRSNYSELREDIQTKGKEVENFEKNLEECITRITNTEKCLKELMELKTKARELREECRSLRSRCDQLEERVSAMEDEMNEMKREGKFREKRIKRNEQSLQEIWDYVKRPNLRLIGVPESDVENGTKLENTLQDIIQENFPNLARQANVQIQEIQRTPQRYSSRRATPRHIIVRFTKVEMKEKMLRAAREKGRVTLKGKPIRLTADLSAETLQARREWGPIFNILKEKNFQPRISYPAKLSFISEGEIKYFIDKQMLRDFVTTRPALKELLKEALNMERNNRYQPLQNHAKM
notes: LINE-1 ORF1 protein, endogenous in HEK 293T cells; Endogenous ORF1p comes from many L1 loci; also called endogenous ORF1p; source: endogenous, HEK 293T lysate
For B1, the “fold reduction against wild-type ZCCHC3-FL (band intensity)” value [1] was 2 fold and the “fold increase over empty vector controls (IP/input band intensity)” value [2] was 5 fold.

From PMC10351740, “ZCCHC3 is a stress granule zinc knuckle protein that strongly suppresses LINE-1 retrotransposition” (PLOS Genetics, 2023)
